Measurements: patent US7446182

What was measured:
[1] = biological target: Bacillus anthracis protective antigen (PA), 83 kDa polypeptide (Bacillus anthracis) (UniProt P13423)
[2] = biological target: Bacillus anthracis protective antigen (PA), 83 kDa polypeptide (Bacillus anthracis) (UniProt P13423); remark: listed apart in the source

Sequence of Bacillus anthracis protective antigen (PA), 83 kDa polypeptide (Bacillus anthracis) (P13423 30-764 limits assumed): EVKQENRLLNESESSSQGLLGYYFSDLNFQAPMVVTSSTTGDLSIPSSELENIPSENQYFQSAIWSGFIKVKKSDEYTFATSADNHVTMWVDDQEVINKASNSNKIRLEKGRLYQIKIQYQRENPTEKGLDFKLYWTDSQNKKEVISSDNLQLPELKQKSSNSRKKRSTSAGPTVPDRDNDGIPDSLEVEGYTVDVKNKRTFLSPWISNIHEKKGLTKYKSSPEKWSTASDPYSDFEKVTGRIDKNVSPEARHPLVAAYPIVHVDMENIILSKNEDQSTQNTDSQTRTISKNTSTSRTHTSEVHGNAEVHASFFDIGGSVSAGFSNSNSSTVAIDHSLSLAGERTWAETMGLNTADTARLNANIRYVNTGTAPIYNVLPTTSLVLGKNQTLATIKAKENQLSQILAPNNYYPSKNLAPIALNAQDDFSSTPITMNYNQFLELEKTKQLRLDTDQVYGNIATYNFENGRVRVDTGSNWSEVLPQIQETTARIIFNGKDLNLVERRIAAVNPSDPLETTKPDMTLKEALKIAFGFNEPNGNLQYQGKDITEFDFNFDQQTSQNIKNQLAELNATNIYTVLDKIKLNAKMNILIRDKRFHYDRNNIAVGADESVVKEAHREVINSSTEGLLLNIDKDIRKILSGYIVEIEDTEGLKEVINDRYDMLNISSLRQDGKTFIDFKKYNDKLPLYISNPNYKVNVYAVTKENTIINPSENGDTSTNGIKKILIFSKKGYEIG

## 14B7 scFv with the mutation L97Leu:Ala
[1]
  Kd: 63 nM
  koff: 0.019 s⁻¹
  kon: 300000 M⁻¹ s⁻¹
[2]
  fold higher KD than 14B7: > 5 fold
